# Assay results from the DeepSol protein solubility set.
# Test: soluble on expression in E. coli; label from the status in PepcDB or PDB records
row,Sequence,soluble on expression in E. coli
1,MTSIGTGYDLSNSVFSPDGRNFQVEYAVKAVENGTTSIGIKCNDGVVFAVEKLITSKLLVPQKNVKIQVVDRHIGCVYSGLIPDGRHLVNRGREEAASFKKLYKTPIPIPAFADRLGQYVQAHTLYNSVRPFGVSTIFGGVDKNGAHLYMLEPSGSYWGYKGAATGKGRQSAKAELEKLVDHHPEGLSAREAVKQAAKIIYLAHEDNKEKDFELEISWCSLSETNGLHKFVKGDLLQEAIDFAQKEINGDDDEDEDDSDNVMSSDDENAPVATNANATTDQEGDIHLE,soluble
2,MTSKSVATPALDPAFQQLTAFASVHNFILVKGQADKQDLAGYNIPKLKELIVAYHNLYRSKHGAPPLVADPVMDVAAKRWADEMAKSGWISHEKPRKYGENVAMFCQSGCWPLPQTLAQAMVHLFYIEGIGYDYSSFKPELLKENGHFTQIVWKSSRKIGVGISIGKSSQPPYIPTMFHCVKFDPPGNVLAQQYYLSNVQRPTA,not soluble
3,MTSPITLDALKVLDAIERKKSFAAAADELFRVPSAISYTVNKLEDDLGIALFDRSKRKAELTSVGIMLVEQGRLILKATDELTHMAKQSAEGWELELRICIDSILLFQPIYTLIAQFQQEYPWINIRVTEEVFGGTWDALVAGRSDLIIGATGEPYNSDFSLYKLGNVDFVFVVAKDHALIKEQQPLSNEIIKKYPSVVVADSSRNLPGRSAGLLDGQSRITVSSIEKKIEAQLLGLGVGFLPIHRIKSQLESGQLVILALETTENRNSELCMAWRNDNQGKALAWFVSNIQQMAVKLI,not soluble
4,MTSTKAYVLALAGCTNSGKSTLAKEFQRFFGAGETTIINQDEFYKTENEVEKIYHPDAEHLTDEGYYWSFDEKEAINIDQFRQRILNESKVYKNVIIDGNMITEMDEIVDLCDRIVVMTLDFKTCKRRREARTDYVPADTPGYFVNVAFPAYVRHLERARQRSRTDSRLTFIDVSESKFDDKNKSIVNFRQQILDDHIKLTDEVIDVKVVDQLVSHPSCGAISTFNGVTRDNHGGRDVSNLSYDCHDLMAYKKLRGICAEIRAEYPDVKKIAIFHRLGKVDIGESSVIISTSSPHRKTAIQATEKCIDLLKEHAPIFKYEEYSNGEVDGVWKSNIEDSKQ,not soluble
5,MTSYKPEYLIPNLLDLVAEGEGLRIEFKRLIHSAPKIARSITAFANTSGGVILIGVDDDRRIVGIQSEKEALQVIDEAMRFHIEPKPRIEVHFEEFKRRMVLLVDIPKSPERPHFHIEPLIRRDTGKHGVERRVFIRDGSHNKAASDDRIELMLSSREPLKVAFTGRERCLLDWLNEHDRITAEEFADSAGIPMKEARRILVSLVRAGALRLDTANGDNSYTLAHRLEHHHHHH,soluble
6,MTTAKPNTVEQFEHVIDICREVFQKKLHDYGASWRVMRPSSLTDQLYIKANRIRNIQMKGLSKVDEGVESEFIGVVNYGVIALIQLELGVADTPKMETEEALRLYDLKIREAMSLMLDKNHDYGEAWRQMRVSSFADLILTKVFRTKEIEDLGGDTYISEGVDANYMDMINYAIFALIQLNG,not soluble
7,MTTIGTRKRVAVVTGASSGIGEATARTLAAQGFHVVAVARRADRITALANQIGGTAIVADVTDDAAVEALARALSRVDVLVNNAGGAKGLQFVADADLEHWRWMWDTNVLGTLRVTRALLPKLIDSGDGLIVTVTSIAAIEVYDGGAGYTAAKHAQGALHRTLRGELLGKPVRLTEIAPGAVETEFSLVRFDGDQQRADAVYAGMTPLVAADVAEVIGFVATRPSHVNLDQIVIRPRDQASASRRATHPVR,not soluble
8,MTTIVPTSEENPFLAVVRFTSQLAWADAGPEAAEPEITRLCREAEESMVAEKWLELSSLMVTSAELVSSKISEKDLECTYTIICSIVKNAKSPEQVLEMVKAIASKVAQQPSDKASLRLKILFNLYNLVDHPYARFQVYMKALTLAVDGKVTEYIVSSFKKIDNFLKEWNIDIKDQRELFLAIANVLKENKSLVNESLKFLTKYLATFSNEDAQVLDEAKEEAVRAVIEFVKASSIFQCDLLDLPAVAQLEKDAKYAPVYQLLKIFLTQRLNAYTEFQNANSGFLQSYGLSNEDCVTKMRLLSLVDLASDESGKIPYTSIKDTLQVNEQDVELWIVKAITAKLIESALPNVNLGQSNGNLSEQSLRLGSIITTIESNKVTEEGSQASSSSAAAIQGLSVR,soluble
